From patent publication US20210388087A1 (Chugai, published 2021)
Residue numbers refer to the chain shown, from its start. Values belong to the binder of their own block, whether it stands above or below them.

Tests used:
[1] = molecular target: human CD137 on HDLM-2 cells (human, UniProt Q07011 24-255); experiment: cell-based or functional assay
[2] = molecular target: T1, Human CD3eg linker (human); experiment: SPR Biacore T200, 25 C, Ab captured on anti-human Fc, antigen as analyte;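 further: Anti-Fc amine-coupled to a CM4 chip, recombinant human CD3 flowed over in 20 mM ACES buffer pH 7.4 with 150 mM NaCl and 0.05% Tween 20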
T1 construct: Single chain: CD3 epsilon and gamma subunits joined by a 29-mer linker, Flag-tag at the C-terminus; also called recombinant human CD3
T1 chain: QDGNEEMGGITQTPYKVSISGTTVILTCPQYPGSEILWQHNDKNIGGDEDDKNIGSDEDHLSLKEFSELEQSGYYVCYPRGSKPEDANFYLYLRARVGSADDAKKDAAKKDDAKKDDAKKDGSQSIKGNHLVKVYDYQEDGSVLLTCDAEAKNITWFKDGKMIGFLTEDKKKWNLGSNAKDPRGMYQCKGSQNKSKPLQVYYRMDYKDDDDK
Protocol: Binding affinity of Dual-Fab antibodies (Dual-Ig) to human CD3 were assessed at 25 degrees C. using Biacore T200 instrument (GE Healthcare). Anti-human Fc (GE Healthcare) was immobilized onto all flow cells of a CM4 sensor chip using amine coupling kit (GE Healthcare). Antibodies were captured onto the anti-Fc sensor surfaces, then recombinant human CD3 or CD137 was injected over the flow cell. All antibodies and analytes were prepared in ACES pH 7.4 containing 20 mM ACES, 150 mM NaCl, 0.05% Tween 20, 0.005% NaN3. Sensor surface was regenerated each cycle with 3M MgCl2. […] CD137 binding affinity assay was conducted in same condition except assay temperature was set at 37 degrees C.

Chain of human CD137 on HDLM-2 cells (Q07011 24-255): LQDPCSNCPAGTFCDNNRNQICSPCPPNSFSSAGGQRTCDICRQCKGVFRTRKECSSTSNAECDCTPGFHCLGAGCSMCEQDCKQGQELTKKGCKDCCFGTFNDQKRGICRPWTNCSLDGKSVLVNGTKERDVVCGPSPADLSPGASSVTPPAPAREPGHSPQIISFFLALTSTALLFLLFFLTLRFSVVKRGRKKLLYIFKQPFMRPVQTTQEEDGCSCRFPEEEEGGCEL

B2: GPC3 ERY22-dBBDu_186/L106 (bispecific antibody, human IgG1, kappa, L234A L235A, N297A)
heavy 1: DIVMTQSPLSLPVTPGEPASISCRSSQSLVHSNRNTYLHWYQQKPGQAPRLLIYKVSNRFSGVPDRFSGSGSGTDFTLKISRVEAEDVGVYYCSQNTHVPPTFGQGTKLEIKSSASTKGPSVFPLAPSSKSTSGGTAALGCLVKDYFPEPVTVSWNSGALTSGVHTFPAVLQSSGLYSLSSVVTVPSSSLGTQTYICNVNHKPSNTKVDKKVEPKSCDKTHTCPPCPAPEAAGGPSVFLFPPKPKDTLMISRTPEVTCVVVDVSHEDPEVKFNWYVDGVEVHNAKTKPREEQYASTYRVVSVLTVLHQDWLNGKEYKCKVSNKALPAPIEKTISKAKGQPREPQVCTLPPSRDELTKNQVSLWCLVKGFYPSDIAVEWESNGQPENNYKTTPPVLDSDGSFFLYSKLTVDKSRWQQGNVFSCSVMHEALHNHYTQKSLSLSPHHHHHHHH
light 1: QVQLVQSGAEVKKPGASVKVSCKASGYTFTDYEMHWIRQPPGQGLEWIGAIDPKTGDTAYSQKFKGRVTLTADKSTSTAYMELSSLTSEDTAVYYCTRFYSYTYWGQGTLVTVSSASVAAPSVFIFPPSDEQLKSGTASVVCLLNNFYPREAKVQWKVDNALQSGNSQESVTEQDSKDSTYSLSSTLTLSKADYEKHKVYACEVTHQGLSSPVTKSFNRGEC
heavy 2: QVQLVESGGGLVQPGRSLRLSCAASGFTFSNAWMHWVRQAPGKGLEWVAQIKDRSNQYATYYAPSVKGRFTISRDDSKNSIYLQMNSLKTEDTAVYYCHYVHYAQASTVLPAFGVDAWGQGTTVTVSSASTKGPSVFPLAPSSKSTSGGTAALGCLVKDYFPEPVTVSWNSGALTSGVHTFPAVLQSSGLYSLSSVVTVPSSSLGTQTYICNVNHKPSNTKVDKKVEPKSCDKTHTCPPCPAPEAAGGPSVFLFPPKPKDTLMISRTPEVTCVVVDVSHEDPEVKFNWYVDGVEVHNAKTKPREEQYASTYRVVSVLTVLHQDWLNGKEYKCKVSNKALPAPIEKTISKAKGQPREPQVYTLPPSRCELTKNQVSLSCAVKGFYPSDIAVEWESNGQPENNYKTTPPVLDSDGSFFLVSKLTVDKSRWQQGNVFSCSVMHEALHNHYTQKSLSLSPDYKDDDDK
light 2: DIVMTQSPLSLPVTPGEPASISCSTSEELLHINRFIFLHWYQQKPGQAPRLLIYKVANRFMGVPDRFSGSGSGTDFTLKISRVEAEDVGVYYCAQGSQVPFTFGQGTKLEIKRTVAAPSVFIFPPSDEQLKSGTASVVCLLNNFYPREAKVQWKVDNALQSGNSQESVTEQDSKDSTYSLSSTLTLSKADYEKHKVYACEVTHQGLSSPVTKSFNRGEC
Agonistic activity compared to B, antibody 6 ug/mL [1]: 13.2%
Agonistic activity compared to B, antibody 30 ug/mL [1]: 19.4%
Agonistic activity compared to Ctrl, antibody 6 ug/mL [1]: 45.8%
Agonistic activity compared to Ctrl, antibody 30 ug/mL [1]: 73.6%
hIL-6 (pg/mL), antibody 6 ug/mL [1]: 1480 pg/mL
hIL-6 (pg/mL), antibody 30 ug/mL [1]: 1570 pg/mL

B3: GPC3 ERY22-dBBDu_183/L072 (bispecific antibody, human IgG1, kappa, L234A L235A, N297A)
heavy 1: B2 heavy 1
light 1: B2 light 1
heavy 2: B2 heavy 2 with R54K, S55G, Q57A, T60A, Q105S
light 2: DIVMTQSPLSLPVTPGEPASISCQASQELVHMNRNTYLHWYQQKPGQAPRLLIYKVSNRFPGVPDRFSGSGSGTDFTLKISRVEAEDVGVYYCAQGTSVPFTFGQGTKLEIKRTVAAPSVFIFPPSDEQLKSGTASVVCLLNNFYPREAKVQWKVDNALQSGNSQESVTEQDSKDSTYSLSSTLTLSKADYEKHKVYACEVTHQGLSSPVTKSFNRGEC
Agonistic activity compared to B, antibody 6 ug/mL [1]: 3.21%
Agonistic activity compared to B, antibody 30 ug/mL [1]: 15.8%
Agonistic activity compared to Ctrl, antibody 6 ug/mL [1]: 11.1%
Agonistic activity compared to Ctrl, antibody 30 ug/mL [1]: 59.8%
hIL-6 (pg/mL), antibody 6 ug/mL [1]: 1130 pg/mL
hIL-6 (pg/mL), antibody 30 ug/mL [1]: 1450 pg/mL

B5: GPC3 ERY22-dBBDu_189/L116 (bispecific antibody, human IgG1, kappa, L234A L235A, N297A)
heavy 1: B2 heavy 1
light 1: B2 light 1
heavy 2: B2 heavy 2 with V48I, T108S, V109L, A112S
light 2: B3 light 2 with Q24S, A25S, M32A, N35Q, T36I, S57A, S98Q
Agonistic activity compared to B, antibody 6 ug/mL [1]: 8.28%
Agonistic activity compared to B, antibody 30 ug/mL [1]: 19.2%
Agonistic activity compared to Ctrl, antibody 6 ug/mL [1]: 28.7%
Agonistic activity compared to Ctrl, antibody 30 ug/mL [1]: 72.9%
hIL-6 (pg/mL), antibody 6 ug/mL [1]: 1300 pg/mL
hIL-6 (pg/mL), antibody 30 ug/mL [1]: 1570 pg/mL

B8: GPC3 ERY22-dBBDu_189/L119 (bispecific antibody, human IgG1, kappa, L234A L235A, N297A)
heavy 1: B2 heavy 1
light 1: B2 light 1
heavy 2: B2 heavy 2 with V48I, T108S, V109L, A112S
light 2: B2 light 2 with S24T, T25A, E27Q, L30V, A57S, M61I
Agonistic activity compared to B, antibody 6 ug/mL [1]: 6.92%
Agonistic activity compared to B, antibody 30 ug/mL [1]: 20.4%
Agonistic activity compared to Ctrl, antibody 6 ug/mL [1]: 24%
Agonistic activity compared to Ctrl, antibody 30 ug/mL [1]: 77.3%
hIL-6 (pg/mL), antibody 6 ug/mL [1]: 1260 pg/mL
hIL-6 (pg/mL), antibody 30 ug/mL [1]: 1610 pg/mL

More lines, now with the values ahead:

Agonistic activity compared to B, antibody 6 ug/mL [1]: -1.27%
Agonistic activity compared to B, antibody 30 ug/mL [1]: 6.51%
Agonistic activity compared to Ctrl, antibody 6 ug/mL [1]: -4.41%
Agonistic activity compared to Ctrl, antibody 30 ug/mL [1]: 24.7%
hIL-6 (pg/mL), antibody 6 ug/mL [1]: 968 pg/mL
hIL-6 (pg/mL), antibody 30 ug/mL [1]: 1130 pg/mL
B1: GPC3 ERY22-dBBDu_183/L063 (bispecific antibody, human IgG1, kappa, L234A L235A, N297A)
heavy 1: B2 heavy 1
light 1: B2 light 1
heavy 2: B2 heavy 2 with R54K, S55G, Q57A, T60A, Q105S
light 2: B3 light 2 with Q24R, A25S, M32T, N35H, S98Q

Agonistic activity compared to B, antibody 6 ug/mL [1]: 13.9%
Agonistic activity compared to B, antibody 30 ug/mL [1]: 24.6%
Agonistic activity compared to Ctrl, antibody 6 ug/mL [1]: 48.3%
Agonistic activity compared to Ctrl, antibody 30 ug/mL [1]: 93.5%
hIL-6 (pg/mL), antibody 6 ug/mL [1]: 1500 pg/mL
hIL-6 (pg/mL), antibody 30 ug/mL [1]: 1750 pg/mL
B4: GPC3 ERY22-dBBDu_186/L098 (bispecific antibody, human IgG1, kappa, L234A L235A, N297A)
heavy 1: B2 heavy 1
light 1: B2 light 1
heavy 2: B2 heavy 2
light 2: B2 light 2 with S24A, T25A, L30V, F35Y, A57S, M61I

Agonistic activity compared to B, antibody 6 ug/mL [1]: -2.21%
Agonistic activity compared to B, antibody 30 ug/mL [1]: 1.1%
Agonistic activity compared to Ctrl, antibody 6 ug/mL [1]: -7.68%
Agonistic activity compared to Ctrl, antibody 30 ug/mL [1]: 4.19%
hIL-6 (pg/mL), antibody 6 ug/mL [1]: 935 pg/mL
hIL-6 (pg/mL), antibody 30 ug/mL [1]: 944 pg/mL
B6: GPC3 ERY22-dBBDu_167/L091 (bispecific antibody, human IgG1, kappa, L234A L235A, N297A)
heavy 1: B2 heavy 1
light 1: B2 light 1
heavy 2: B2 heavy 2 with R54K, S55G, Q57L, T60A, Q105S, S107G, T108G, V109G, A112G
light 2: B3 light 2 with Q24S, Q27E, E28S, V30L, M32N, N35H, K55R, P61N, A94G, S98Q

Agonistic activity compared to B, antibody 6 ug/mL [1]: 19%
Agonistic activity compared to B, antibody 30 ug/mL [1]: 24.2%
Agonistic activity compared to Ctrl, antibody 6 ug/mL [1]: 66.1%
Agonistic activity compared to Ctrl, antibody 30 ug/mL [1]: 91.7%
hIL-6 (pg/mL), antibody 6 ug/mL [1]: 1680 pg/mL
hIL-6 (pg/mL), antibody 30 ug/mL [1]: 1740 pg/mL
B7: GPC3 ERY22-dBBDu_186/L096 (bispecific antibody, human IgG1, kappa, L234A L235A, N297A)
heavy 1: B2 heavy 1
light 1: B2 light 1
heavy 2: B2 heavy 2
light 2: B3 light 2 with Q24R, A25T, M32I, N35Y, T36I, Y37F, S57Y, P61Q, F101Y

Kd [2]: 340 nM
koff [2]: 0.012 s⁻¹
kon [2]: 35400 M⁻¹ s⁻¹
B9: H183/L072 (antibody, V domains shown)
VH: QVQLVESGGGLVQPGRSLRLSCAASGFTFSNAWMHWVRQAPGKGLEWVAQIKDKGNAYAAYYAPSVKGRFTISRDDSKNSIYLQMNSLKTEDTAVYYCHYVHYASASTVLPAFGVDAWGQGTTVTVSS
VL: DIVMTQSPLSLPVTPGEPASISCQASQELVHMNRNTYLHWYQQKPGQAPRLLIYKVSNRFPGVPDRFSGSGSGTDFTLKISRVEAEDVGVYYCAQGTSVPFTFGQGTKLEIK
notes: Dual-Fab antibody (Dual-Ig), bivalent IgG; also called parental Dual-Fab H183L072; dBBDu183H/dBBDu072L
